Source: paper PMC2120604

B1: GST-lamin B2 tail (residues 382-596) (domain or fragment)
chain: LSPSPSSRITISRATSSSSSSSGVGMSVGQGRGKRRRLETEDTSGSPSRASRVSSGSRLAQQTVATGVVNIDEVDPEGRFVRLKNSSDKDQSLGNWRIKRQVLEGEDIAYKFTPKYVLRAGQTVTVWAAGAGATHSPPSTLVWKSQTNWGPGESFRTALVSADGEEVAVKAAKHSSVQGRENGEEEEEEEAEFGEEDLFHQQGDPRTTSRGCRLM
modifications: 125I-labelled (Iodogen) where used as the radiolabelled ligand
B2: GST-lamin B1 tail (residues 391-588) (domain or fragment)
chain: LSPSPSSRVTVSRASSSRSVRTTRGKRKRVDVEESEASSSVSISHSASATGNVCIEEIDVDGKFIRLKNTSEQDQPMGGWEMIRKIGDTSVSYKYTSRYVLKAGQTVTVWAANAGVTASPPTDLIWKNQNSWGTGEDVKVILKNSQGEEVAQRSTVFKTTIPEEEEEEEEEPIGVAVEEERFHQQGAPRASNKSCAIM
modifications: 125I-labelled (Iodogen) where used as the radiolabelled ligand

biological target: rat liver chromatin fragments (rat (endogenous in liver)); experiment: radioligand binding

**Q.** How did the Kd turn out when “GST-lamin C tail (residues 389-572) (from UniProt P02545-2 389-572) (domain or fragment)” was run?
**A.** The Kd was 300 nM.

**Q.** B1 was tested. Which Kd did it give?
**A.** The Kd was 230 nM.

**Q.** Which Kd does the source give for B2 here?
**A.** Its Kd is 120 nM.
